# From PMC8892353 (Proceedings of the National Academy of Sciences of the …, 2022)
# Changes are numbered by the printed parent chain. In names and notes the source's numbering stands.
# B1: Recombinant human COA7 (natural protein)
# chain: MAGMVDFQDEEQVKSFLENMEVECNYHCYHEKDPDGCYRLVDYLEGIRKNFDEAAKVLKFNCEENQHSDSCYKLGAYYVTGKGGLTQDLKAAARCFLMACEKPGKKSIAACHNVGLLAHDGQVNEDGQPDLGKARDYYTRACDGGYTSSCFNLSAMFLQGAPGFPKDMDLACKYSMKACDLGHIWACANASRMYKLGDGVDKDEAKAEVLKNRAQQLHKEQQKGVQPLTFG
# B2: Recombinant Y137C COA7 (^Y137CCOA7) (natural protein, human)
# chain: B1 chain with Y137C
# Tests used:
# COA7 = COA7 (Homo sapiens, UniProt Q96BR5); assay: biochemical
# AUC = target: the molecule itself; assay: AUC
Molecule,Kd (COA7),stoichiometry N (AUC)
C=CC1=C(C)C2=Cc3c(C=C)c(C)c4[n]3[Fe]([Cl])[n]3c(c(C)c(CCC(=O)O)c3=CC3=NC(=C4)C(C)=C3CCC(=O)O)=CC1=N2 [hemin],1.4 ± 0.28 µM,
B1,,2
B2,,2
